Data published in the supplement of paper PMC7125110.
± gives the standard error. Variants at the floor of the assay were thinned out.

B1: glmS ribozyme (parent)
chain: AUAAAAGCGCCAGAACUACAGAAAUGUAGUUGACGAGGAGGAGGUUUAUCGAAUUUUCGGCGGAUGCCUCCAAA

Tests used:
Details in all cases: with glucosamine-6-phosphate
[1] = variants of: B1; test: self-cleavage kobs at 640 uM GlcN6P; higher = faster cleavage; RNA array
Outline: (§1)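 Over ~14 h at 37 °C, tiles were imaged as glucosamine-6-phosphate (40 μM to 10 mM) in HEPES/KCl/Mg(OAc)2 buffer flowed across sequenced MiSeq chips. The chips carried barcoded ribozyme variants transcribed in situ by E. coli RNA polymerase and tracked with a hybridised Cy3 probe. After normalisation to baseline and to non-cleaving reference variants, one- or two-exponential decay fits of per-tile medians gave kobs. kcat and KM followed from weighted Michaelis–Menten fits across concentrations.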

[2] = variants of: B1; test: self-cleavage kobs at 2500 uM GlcN6P; higher = faster cleavage; RNA array
Outline: as §1

[3] = variants of: B1; test: self-cleavage kobs at 10000 uM GlcN6P; higher = faster cleavage; RNA array
Outline: as §1

Variant	self-cleavage kobs at 640 uM GlcN6P [1]	self-cleavage kobs at 2500 uM GlcN6P [2]	self-cleavage kobs at 10000 uM GlcN6P [3]
AUAAAAGCGCCAGAACUACAGAAAUGUAGUCGACGAGGAGGAGGUUUAUCCAAUUUUCGGCGGAUGCCUCAAAA	< 1e-05 s⁻¹		
AUAAAAGCGCCAGAACUACAGAAAUGUAGGUGACGAGGAGGUGGUUUAUAGAAUUUUCGUCGGAUGCCUCCAAA	< 1e-05 s⁻¹		
AUAAAAGCGCCAGAACUACAGAAAUGUAGUUGACAAGGGGGAGGUUUAUCGAAUUUUCGGUGGAUGCCUCCAAA	< 1e-05 s⁻¹	< 1e-05 s⁻¹	
AUAAAAGUGCCAGAACUACAGAAAUGUAGUUGACGAGGAGGAGGUUUAUCGAGUAUUCGGCGGAUGCGUCCAAA	0.000442 ± 0.00017 s⁻¹		
AUAAAAGUGCCAGACCUACAGAAAUGUAGUUGACCAGGAGGAGGUUUAUCGAAUUUUCGGCGGAUGCUUCCAAA	< 1e-05 s⁻¹		
AUAAAAGCGCUAGAGCUACAGAAAUGUAGUUGACGAGGAGGAGGUUUAUCGAAUUUUCGGCGGAUGCCUUCAAA	0.000677 ± 0.00015 s⁻¹	0.00215 ± 0.00061 s⁻¹	
AUAAAAGAGCCAUAACUACAGAAAUGUAGUUGACGAGGAGGAAUUUUAUCGAAUUUUCGGCGUAUGCCUCCAAA	< 1e-05 s⁻¹		
AUAAAAGCGCCAGAACUACAGAAAUGUAGUUGACGAGAAGGAGGUUUCUCGAAUUUUCGGCGGAUGCCUCCAAA	< 1e-05 s⁻¹	< 1e-05 s⁻¹	< 1e-05 s⁻¹
AUAAAAGCGCCAGAACUACAGAAAUGUAGUUGACGAGGAGGAGGUUACUCGAAUUUUCGGCGGAUGCCUCCAAA	0.000145 ± 2.2e-05 s⁻¹	0.000222 ± 3.6e-05 s⁻¹	0.000561 ± 0.0001 s⁻¹
AUAAAAGCGCUGGAACUACAGAAAUGUAGUUGACGAGGAGGAGGUUUAUCGAAUUUUCGGCGGAUGACUCCAAA	8.5e-05 ± 2e-05 s⁻¹	0.000771 ± 0.00025 s⁻¹	
AUAAAAGCGGAAGAACUACAGAAAUGUAGUUGACGAGGUGGAGGUUUAUCGAAUUUUCGGCGGAUGCCUCCAAA	< 1e-05 s⁻¹	< 1e-05 s⁻¹	
AUAAAAGCGCCAGAACUACAGAAAUGUAGUUGACGAGAAUGAAGUUUAUCGCAUUUUCGGCGGAUGCCUCCAAA	< 1e-05 s⁻¹		
AUAAAAGCGCGAGUACUACAGAAAUGUAGUUGACGUGGAGGAGGUAUAUCGAAUUUUCGGGGAAUGCCUCCAAA	< 1e-05 s⁻¹	< 1e-05 s⁻¹	
AUAAAAGCGGAAGAAAUACAGAAAUGUAGUUGACGAGGAGGAGGUUUAUCGAAUUUUGGGCGGAUGCCUCGAAA	0.00176 ± 0.00062 s⁻¹	0.000241 ± 0.0001 s⁻¹	
AUAAAAGCGCCUGAACUACAGAAAUGUAGUUGACGAGCCGGAGGUUUAUCGAAUUUUCGGCGGAUGCCUCCAAA	< 1e-05 s⁻¹		< 1e-05 s⁻¹
AUAAAAGCGACAGAACUACAGAAAUGUAGUUGACGAGGAGGAGGUUGAUCGAAUUUUCGGCGGAUGCCUCCAAA	< 1e-05 s⁻¹	< 1e-05 s⁻¹	
AUAAAAGCGCCAGAACUACAGAAAUGUAGUUGACGAGGAGGAGGCUUAUCGACUUUUCGGCGGAUGCCUCCAAA	9.37e-05 ± 1.6e-05 s⁻¹		0.000403 ± 0.00014 s⁻¹
AUAAAAUCGCCAGAACUACAGAAAUGUAGUUGACGAGGAAGAGGUUUAUCGAAUUUUCGUCGGAUGCCUCCAAA	< 1e-05 s⁻¹	< 1e-05 s⁻¹	
AUAAAAGCGCCAGAACUACAGAAAUGUAGUUGACGAGGCGGAGGAUUAUCGAAUUUUCGGCGGAUGCGUCCAAA	< 1e-05 s⁻¹		
AUAAAAGCGCAAGAGCUACAGAAAUGUAAUUGACGAGGAGGAGGUUUAUCGAAUUUUCGGCGGAUGCCUCCAAA	< 1e-05 s⁻¹		
AUAAAAGCGAGAGAACUACAGAAAUGUAGUUGACCAGGAGGAGCUUUAUCGAAUUUUCGGCGGAUGCCUCCAAA	< 1e-05 s⁻¹	< 1e-05 s⁻¹	
AUAAAAGCCCCAGAACUACAGAAAUGUACUUGACGAGGAGGAGGUUUAUCGUAUUUUCGGCGGAUGCCUUCAAA	< 1e-05 s⁻¹	< 1e-05 s⁻¹	< 1e-05 s⁻¹

Variant	self-cleavage kobs at 640 uM GlcN6P [1]	self-cleavage kobs at 2500 uM GlcN6P [2]	self-cleavage kobs at 10000 uM GlcN6P [3]
AUAAAAGCUCCAGAACUACAGAAAUGUAGUUGACGAGGAGGAGGUUUAGCGCAUUUUCGGCGGCUGCCUCCAAA	< 1e-05 s⁻¹		
AUAAAAGCGCCAGAACUACAGAAAUGUAGUUGACGAGGAGGAGGUUAAGCGAAUUUUCGGCGGAUGCCUCCAAA	3.82e-05 ± 1.4e-05 s⁻¹	7.57e-05 ± 1.8e-05 s⁻¹	
AUAAAAGCGCUAGAACUACAGAAAUGUAGUUGACGAGGAGAAGGUUUAUCGAAUUUUCGUCGUAUGCCUUCAAA	< 1e-05 s⁻¹	< 1e-05 s⁻¹	
AUAAAAACGCCAGAACUACAGAAAUGUAGUUGACGAGGGGGAGGUUUAUCGAAUUUUCGGCGGCUGCCUCUAAA	< 1e-05 s⁻¹	< 1e-05 s⁻¹	
AUAAAAGCUCCAGCACUACAGAAAUGUAGUUGACGAGGAGGAGGUUUAUCGAAUUUUCGGCGGUUGCAUCCAAA	< 1e-05 s⁻¹	< 1e-05 s⁻¹	
AUAAAAGCGCCAGUACUACAGAAAUGUAGUUGACGAGGAGGAGGUUUAUCGAAUUUUCGGCUGAUGCCACCAAA	< 1e-05 s⁻¹		
AUAAAAUAGCCAGAACUACAGAAAUGUAGGUGACGAGGAGGAGCUUUAUCGAAUUUUCGGCGGAUGCCUCCAAA	< 1e-05 s⁻¹		
AUAAAAGCGCCAGAACUACAGAAAUGUAGUUAACGAGGAGGAGGUUUAUCGAAAUUUCGGCGGAUGCAUCCAAA	0.000374 ± 0.00012 s⁻¹	0.000108 ± 4.1e-05 s⁻¹	
AUAAAGGCGCCAGAACUACAGAAAUGUAGUAGACGGGGAGGAGGUUUUUCGAAUUUUCGGCGGAUGCCUCCAAA	< 1e-05 s⁻¹		
AUAAAAGCGGCACAACUACAGAAAUGUAGUUGACGAGGGGGAGGUUUAUCGAAUUUUCGGCGGAUGCCUCCAAA	< 1e-05 s⁻¹	< 1e-05 s⁻¹	
AUAAAAGCGCCAGAACUACAGAAAUGUAGUUGACGGGGAGGCGGUUUAUCGAAUUUCCUGCGGAUGCCUCCAAA	< 1e-05 s⁻¹	< 1e-05 s⁻¹	
AUAAACGCGCCAGGACUACAGAAAUGUAGUUGACGGGGAGGAGGUUUAUCGCAUUUUCGGCGGAUGCCUCCAAA	< 1e-05 s⁻¹	< 1e-05 s⁻¹	
AUAAAUGCGCCAGAACUACAGAAAUGUAAUAGACGAGGAGGACGUGUAUCGAAUUUUGGGCGGAUGCCUCCAAA	< 1e-05 s⁻¹	< 1e-05 s⁻¹	
AUAAACGCGCCAGAACUACAGAAAUGUAGUUGACGAGGAGGAGGCUUAUCCAAUUUUCGGCGGAGGCCUGCAAA	< 1e-05 s⁻¹	< 1e-05 s⁻¹	
AUAAAAGCGCCAGAACUACAGAAAUGUAGUUUACGAGGAGUAGGUUUAUCGGAUUUUCGACGGAUGCCUCCAAA	< 1e-05 s⁻¹		
AUAAAAGCGCCAGAACUACAGAAAUGUAGUUGACGAGGAGGGGGUUUAUCUAAUUUUCGGCGGAUGCCUUCAAA	< 1e-05 s⁻¹		
AUAAAAGCGCCAGAACUACAGAAAUGUAGCUGACGAUGAGGAGCUUUAUCGAAUUUUUGGCGGAUGUCUCCAAA	< 1e-05 s⁻¹		
AUAAAAGCGCCAGUACUACAGAAAUGUAGUUGACGAGGAGGAGGUUUUUCAGAUUUUCGGCGGAUGCCUCCAAA	< 1e-05 s⁻¹	< 1e-05 s⁻¹	
AUAAAAGCGCCAGAACUACAGAAAUGGUGGUGACGAGGAGGAGGUUUAUCGAAUUUUCGGCGGAUGCAUCCAAA	< 1e-05 s⁻¹	< 1e-05 s⁻¹	
AUAAAAGCGCCAGAACUACAGAAAUGUAGUUGACGAGGACGAGGUUUAUUGAAUUUUCGCCGGAUGCCUCCAAA	< 1e-05 s⁻¹		< 1e-05 s⁻¹
AUAAAAGCGCCAGAACUACAGAAAUGUAGUUGACGAGGAGGAGGUUUAUCGAAUUUUUGGCGGCUGCCUCAAAA	< 1e-05 s⁻¹		
AUAAAAGGGCCAUAACUACAGAAAUGUAGUUGACGAGGAGGAGGUUUAUCGAAUCUUUGGCGGAUGCCUCCAAA	< 1e-05 s⁻¹	< 1e-05 s⁻¹	
